Laboratory results as given in patent publication US20200239555A1 (STATEN BIOTECHNOLOGY B V, published 2020).
Changes are numbered by the printed parent chain.

B1: 5E5WT scFv-Fc (scFv, part only; not given: Linker, domain order, Fc, V domains shown, not shown: another chain or arm of the molecule; a dimerising Fc or GST; small tags and cut ends)
VH: QLQLVESGGGLVQPGGSLRLSCAASGFTFGTYSMRWVRQVPRKALEWVSSISTDGGGTAYRDSVKGRFTISRDNAKNTLYLQMNNLKPEDTAIYYCVIAGYSDWGQGTQVTVSS
VL: ATMLTQSPGSLSVVPGESASISCKTSQGLVHSDGKTYFYWFLQKPGQSPQQLIYQVSNRASGVPDRFTGSGSGTDFTLKISGVKAEDAGVYYCAQGTYYPHTFGSGTRLEIK
B2: 5E5VHWT_VL8 scFv-Fc (scFv, part only; not given: Linker, domain order, Fc, V domains shown, not shown: another chain or arm of the molecule; a dimerising Fc or GST; small tags and cut ends)
VH: B1 VH
VL: B1 VL with Q95H
B3: 5E5VH12_VLWT scFv-Fc (scFv, part only; not given: Linker, domain order, Fc, V domains shown, not shown: another chain or arm of the molecule; a dimerising Fc or GST; small tags and cut ends)
VH: B1 VH with A99H
VL: B1 VL
B4: 5E5VH5_VLWT scFv-Fc (scFv, part only; not given: Linker, domain order, Fc, V domains shown, not shown: another chain or arm of the molecule; a dimerising Fc or GST; small tags and cut ends)
VH: B1 VH with S52H
VL: B1 VL
B5: 5E5VH5VH12_VL8 human IgG1 (antibody, V domains shown)
VH: B1 VH with S52H, A99H
VL: B1 VL with Q95H
B6: 5E5WT human IgG1 (antibody, V domains shown)
VH: B1 VH
VL: B1 VL
B7: 5E5VH5_VL8 human IgG1 (antibody, V domains shown)
VH: B1 VH with S52H
VL: B1 VL with Q95H
notes: Tested as human IgG1; the tested lot is not tied to them in words
B8: 5E5VH5_VLWT human IgG1 (antibody, V domains shown)
VH: B1 VH with S52H
VL: B1 VL
B9: 5E5VH12_VL8 human IgG1 (antibody, V domains shown)
VH: B1 VH with A99H
VL: B1 VL with Q95H
notes: Tested as human IgG1
B10: 5E5VHWT_VL8 human IgG1 (antibody, V domains shown)
VH: B1 VH
VL: B1 VL with Q95H
B11: 5E5VH5VH12_VLWT human IgG1 (antibody, V domains shown)
VH: B1 VH with S52H, A99H
VL: B1 VL
B12: mAb13 (antibody, IgG1, V domains shown)
VH: QLLESGGGLVQPGGSLRLSCAASGFTFSTYSMRWVRQVPGKGLEWVSSIHTEGGGTAYRDSVKGRFTISRDNSKNTLYLQMNSLRAEDTAVYYCVIAGYSDWGQGTLVTVSS
VL: DIVMTQSPLSLPVTPGEPASISCKTSQGLVHSDGKTYFYWYLQKPGQSPQLLIYQVSNRASGVPDRFSGSGSGTDFTLKISRVEAEDVGVYYCAHGTYYPHTFGQGTRLEIK
notes: Produced as full length IgG1 (kappa) in ExpiCHO-S cells; CDR graft into the closest human germline frameworks; also called humanized anti-ApoC3 antibody mAb13; variant 13
B13: mAb14 (antibody, IgG1, V domains shown)
VH: B12 VH with S28G
VL: B12 VL
notes: Produced as full length IgG1 (kappa) in ExpiCHO-S cells; CDR graft into the closest human germline frameworks; also called humanized anti-ApoC3 antibody mAb14; variant 14

molecular target: T1, biotinylated native human ApoC3 (human, UniProt P02656 21-99, biotinylated (site not stated)); experiment: SPR, scFv-Fc over biotinylated ApoC3 on SA chip, pH 5.5
T1 construct: also called biotinylated human ApoC3
T1 sequence (P02656 21-99): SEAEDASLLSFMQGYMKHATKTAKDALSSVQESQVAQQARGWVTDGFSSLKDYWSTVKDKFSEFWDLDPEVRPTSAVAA

Q: What does the source list for B1?
A: Kd: 0.06 nM; koff: 2.53e-05 s⁻¹; kon: 393000 M⁻¹ s⁻¹

Q: With B2 as the binder, how does the koff read?
A: 0.00116 s⁻¹

Q: And the kon?
A: 269000 M⁻¹ s⁻¹

Q: Which Kd does the source give for B3 here?
A: 16 nM

Q: What about the koff of the same binder?
A: 0.00206 s⁻¹

Q: And the kon?
A: 129000 M⁻¹ s⁻¹

Q: What does the source list for B4?
A: koff: 0.0016 s⁻¹; kon: 147000 M⁻¹ s⁻¹

molecular target: T2, native human ApoC3 (human, UniProt P02656 21-99); experiment: SPR, IgG1 over ApoC3 on CM5 chip, pH 7.4; pH 7.4; IgG1 over native ApoC3 on CM5 chip
T2 construct: also called nhuApoC3; native huApoC3
Method: (§1) Based on the results in Example 1, test scFv-Fc antibodies were generated as human IgG₁ antibodies. An SPR-based assay was employed, in which human ApoC3 protein was immobilized on a CM5 chip, and the binding kinetics of test antibodies to the coated chip were measured at both pH 7.4 and pH 5.5. Briefly, a solution of 50 μg/ml of native human ApoC3 in 10 mM acetate buffer at pH 4.5 was prepared and injected until the surface density reached approximately 500 RU. 60 μl of each test antibody was diluted in HBS-EP buffer (GE, cat. nr. BR-1008-26; 0.010 M HEPES, 0.150M NaCl, 3 mM EDTA, 0.05% (v/v) surfactant P20, pH 7.4), and was injected at a concentration as described in Table 9. The test antibodies were passed through the flow cells at a flow rate of 30 μl/min, followed by an off-rate wash at pH 7.4 or pH 5.5 for 5 min. The resulting sensorgrams were analyzed using the BIAevaluation 4.1 software applying the Langmuir 1:1 binding model to derive binding kinetics. Data was zero adjusted and the reference cell sensorgrams were subtracted.

T2 sequence (P02656 21-99): as above

Q: For B5, which koff is on record?
A: 0.0028 s⁻¹

Q: What about the kon of the same binder?
A: 125000 M⁻¹ s⁻¹

molecular target: T1, biotinylated native human ApoC3; experiment: SPR, IgG1 over biotinylated ApoC3 on SA chip, pH 5.5; pH 5.5

Q: B6 was tested. Which Ka did it give?
A: 2.01e+10 M⁻¹

molecular target: T2, native human ApoC3; experiment: SPR, IgG1 over ApoC3 on CM5 chip, pH 7.4
Method: as §1

Q: What does the source list for B6?
A: koff: 1.79e-05 s⁻¹; kon: 350000 M⁻¹ s⁻¹

Q: Which results are given for B7?
A: koff: 0.000173 s⁻¹; kon: 177000 M⁻¹ s⁻¹

Q: How did the koff turn out when B8 was run?
A: 3.77e-05 s⁻¹

Q: And the kon?
A: 178000 M⁻¹ s⁻¹

Q: B9 was tested. Which koff did it give?
A: 0.000163 s⁻¹

Q: And the kon?
A: 267000 M⁻¹ s⁻¹

Q: How did the koff turn out when B10 was run?
A: 2.84e-05 s⁻¹

Q: And the kon?
A: 782000 M⁻¹ s⁻¹

Q: B11 was tested. Which koff did it give?
A: 0.000305 s⁻¹

Q: And the kon?
A: 61600 M⁻¹ s⁻¹

molecular target: T1, biotinylated native human ApoC3; experiment: SPR, scFv-Fc over biotinylated ApoC3 on SA chip

Q: B1 was tested. Which KD pH 5.5/KD pH 7.4 did it give?
A: 3

Q: For B2, which KD pH 5.5/KD pH 7.4 is on record?
A: 7.4

Q: How did the KD pH 5.5/KD pH 7.4 turn out when B3 was run?
A: 31.4

Q: B4 was tested. Which KD pH 5.5/KD pH 7.4 did it give?
A: 18.5

molecular target: T2, native human ApoC3; experiment: SPR, IgG1 over ApoC3 on CM5 chip, pH 5.5
Method: as §1

Q: What does the source list for B6?
A: koff: 1.7e-05 s⁻¹; kon: 340000 M⁻¹ s⁻¹

Q: Which results are given for B7?
A: koff: 0.00242 s⁻¹; kon: 211000 M⁻¹ s⁻¹

Q: What does the source list for B8?
A: koff: 0.000203 s⁻¹; kon: 155000 M⁻¹ s⁻¹

Q: With B9 as the binder, how does the koff read?
A: 0.00165 s⁻¹

Q: And the kon?
A: 188000 M⁻¹ s⁻¹

Q: With B10 as the binder, how does the koff read?
A: 4.06e-05 s⁻¹

Q: What about the kon of the same binder?
A: 731000 M⁻¹ s⁻¹

Q: For B11, which koff is on record?
A: 0.00316 s⁻¹

Q: And the kon?
A: 156000 M⁻¹ s⁻¹

molecular target: T1, biotinylated native human ApoC3; experiment: SPR, IgG1 over biotinylated ApoC3 on SA chip, pH 7.4
Method: (§2) Biotinylated native human ApoC3 was captured on a streptavidin coated SPR chip (GE Healthcare, cat. nr. BR100032) at pH 7.4, in accordance with the method provided by Biacore, by injection of 20 μl 10 μg/ml biotinylated native human ApoC3 reaching the surface density of approximately 500 RU. 60 μL of test antibody in 1-50 nM range diluted in HBS-EP buffer (GE, cat # BR-1008-26; 0.010 M HEPES, 0.150M NaCl, 3 mM EDTA, 0.05% (v/v) surfactant P20, pH 7.4) was injected and passed through the flow cells at a flow rate of 30 μl/min, followed by an off-rate wash at pH7.4 for 5 min. After the dissociation, the flow cell surfaces were regenerated by injecting 10 μl of 10 mM NaOH/1 M NaCl and 10 μl of 10 mM glycine at pH1.5. The assay was repeated at pH5.5 using the same general protocol, where the running and sample dilution buffer was replaced by a HBS-EP buffer supplemented with citrate buffer to 10 mM final concentration and pH adjusted to 5.5.
(§3) The resulting sensorgrams were analyzed using the BIAevaluation 4.1 software using Langmuir 1:1 binding model to derive binding kinetics. Data was zero adjusted and the reference cell sensorgrams were subtracted. Sensorgrams were double referenced to no-analyte blank assay. Fitted parameters were considered not applicable if off-rate values were below the equipment's detection limit of kd: 1×10⁻⁶ 1/s.

Q: B6 was tested. Which Ka did it give?
A: 1.95e+10 M⁻¹

Q: And the Kd?
A: 0.05 nM

Q: And the koff?
A: 1.79e-05 s⁻¹

Q: With B7 as the binder, how does the Ka read?
A: 1.03e+09 M⁻¹

Q: And the Kd?
A: 0.98 nM

Q: What about the koff of the same binder?
A: 0.000173 s⁻¹

Q: What about the kon of the same binder?
A: 177000 M⁻¹ s⁻¹

Q: For B12, which Ka is on record?
A: 2.38e+08 M⁻¹

Q: What about the koff of the same binder?
A: 0.000461 s⁻¹

Q: What about the kon of the same binder?
A: 110000 M⁻¹ s⁻¹

Q: What does the source list for B13?
A: Ka: 3.38e+08 M⁻¹; koff: 0.000427 s⁻¹; kon: 144000 M⁻¹ s⁻¹

molecular target: T1, biotinylated native human ApoC3; experiment: SPR, scFv-Fc over biotinylated ApoC3 on SA chip, pH 7.4

Q: B1 was tested. Which Kd did it give?
A: 0.02 nM

Q: What about the koff of the same binder?
A: 1.75e-05 s⁻¹

Q: What about the kon of the same binder?
A: 823000 M⁻¹ s⁻¹

Q: Which results are given for B2?
A: Kd: 0.58 nM; koff: 0.000221 s⁻¹; kon: 381000 M⁻¹ s⁻¹

Q: For B3, which Kd is on record?
A: 0.51 nM

Q: And the koff?
A: 0.000157 s⁻¹

Q: What about the kon of the same binder?
A: 308000 M⁻¹ s⁻¹

Q: What does the source list for B4?
A: Kd: 0.59 nM; koff: 0.000105 s⁻¹; kon: 178000 M⁻¹ s⁻¹

molecular target: T1, biotinylated native human ApoC3; experiment: SPR, IgG1 over biotinylated ApoC3 on SA chip, pH 7.4; pH 7.4; native ApoC3 on CM5 chip

Q: B6 was tested. Which kon did it give?
A: 350000 M⁻¹ s⁻¹

molecular target: T1, biotinylated native human ApoC3; experiment: SPR, IgG1 over biotinylated ApoC3 on SA chip, pH 5.5
Method: as §2, §3

Q: For B6, which Kd is on record?
A: 0.05 nM

Q: What about the koff of the same binder?
A: 1.7e-05 s⁻¹

Q: What about the kon of the same binder?
A: 340000 M⁻¹ s⁻¹

Q: Which results are given for B7?
A: Ka: 8.74e+07 M⁻¹; koff: 0.00242 s⁻¹; kon: 211000 M⁻¹ s⁻¹

Q: Which Ka does the source give for B12 here?
A: 1.8e+08 M⁻¹

Q: What about the koff of the same binder?
A: 0.00267 s⁻¹

Q: And the kon?
A: 479000 M⁻¹ s⁻¹

Q: Which results are given for B13?
A: Ka: 4.7e+07 M⁻¹; koff: 0.00788 s⁻¹; kon: 370000 M⁻¹ s⁻¹

molecular target: T2, native human ApoC3; experiment: SPR, ApoC3 over captured IgG1, pH 7.4
Method: (§4) An inverted SPR assay was designed in which a test antibody was captured on an SPR chip, human ApoC3 protein was injected, and binding of ApoC3 to the antibody was measured. […] The immobilization was performed in accordance with the method provided by Biacore/GE using the NHS/EDC kit (Biacore AB, Cat.nr. BR-1000-50): after activation of the chip, a solution of 30 μg/ml of anti-human Fcγ antibody in 10 mM acetate buffer with pH of 5.0 was prepared and injected until the surface density reached approximately 10000 RU. The analytical cycle comprised the following steps:
(§5) The resulting sensorgrams were analyzed using the BIAevaluation 4.1 software using Langmuir 1:1 binding model to derive binding kinetics. Data was zero adjusted, the reference cell sensorgrams were subtracted and the no analyte blank assay was used for double referencing the sensorgrams corresponding to the analyte injections. The dissociation and association phase sensorgrams were fitted separately for the 4 different concentration curves. Sensorgrams were excluded from the fitting if maximum RU values reached were below the detection limit of the equipment (<5 RU), Biacore 3000 (Biacore AB).

Q: How did the Ka turn out when B7 was run?
A: 3.35e+06 M⁻¹

Q: And the koff?
A: 0.0127 s⁻¹

Q: What about the kon of the same binder?
A: 42700 M⁻¹ s⁻¹

molecular target: T2, native human ApoC3; experiment: SPR, ApoC3 over captured IgG1, pH 7.4; pH 7.4; ApoC3 600-50 nM over immobilized antibody
Method: as §4, §5

Q: Which results are given for B12?
A: Ka: 998000 M⁻¹; koff: 0.037 s⁻¹; kon: 37000 M⁻¹ s⁻¹

Q: For B13, which Ka is on record?
A: 567000 M⁻¹

Q: What about the koff of the same binder?
A: 0.0458 s⁻¹

Q: And the kon?
A: 26000 M⁻¹ s⁻¹

molecular target: T1, biotinylated native human ApoC3; experiment: SPR, IgG1 over biotinylated ApoC3 on SA chip
Method: as §2, §3

Q: Which “KD pH5.5/KD pH7.4” value does the source give for B6 here?
A: 0.97

Q: How did the “KD pH5.5/KD pH7.4” value turn out when B7 was run?
A: 11.7

Q: For B12, which “KD pH5.5/KD pH7.4” value is on record?
A: 1.33

Q: Which “KD pH5.5/KD pH7.4” value does the source give for B13 here?
A: 7.2
